Experiments:
[1] = tested on: Blumeria graminis f.sp. hordei; experiment: Transient transformation of barley leaf segments, powdery mildew penetration; type: cell-based, barley cv. Pallas; settings: for haustorial growth of the fungus in transformed cells: Calcofluor staining, fluorescence microscopy; for effect on total number or number of attacked GFP-expressing cells: compared with control cDNA experiments; for average % RPE value (relative penetration efficiency): deviation from average penetration efficiency of the control; for reduction of penetration efficiency by Blumeria graminis f.sp. hordei: on average, six experiments, versus control cDNA (TR), 48 hours after inoculation
Procedure: Barley cv. Pallas leaf segments were transformed with a cDNA of Pp291 or Pp364 which were present in the GFP expression vector (green fluorescence protein). The leaves were subsequently inoculated with the pathogenic fungus Blumeria graminis f.sp. hordei (powdery mildew of barley), and the result was analyzed after 48 hours by means of light microscopy and fluorescence microscopy. The penetration into GFP-expressing cells was assessed by detecting haustoria in live cells and by assessing the fungal development in precisely those cells. […].
The transient transformation of barley was carried out with a method which had already been described for the biloistic introduction of cDNA into epidermal cells of barley leaves (Schweizer P et al. (1999) Mol Plant Microbe Interact 12:647-54; Schweizer P et al. (2000) Plant J 2000 24:895-903). Tungsten particles with a diameter of […] (particle density 25 mg/ml) were coated with cDNA together with plasmid DNA of the vector pGFP (GFP under the control of the CaMV 35S promoter) as transformation marker. To this end, the following amount of cDNA and reporter plasmid were used for coating purposes for each bombardment: 1 mg of pGFP and 2 mg of cDNA. To prepare the microcarriers, 55 mg of tungsten particles (M 17, diameter […]; Bio-Rad, Munich) were washed twice with 1 ml of autoclave distilled water and once with 1 ml of absolute ethanol, dried and taken up in 1 ml of 50% strength glycerol (approximately 50 mg/ml stock solution). The solution was diluted with 50% strength glycerol to 25 mg/ml, mixed thoroughly before use and suspended in an ultrasonic bath. To coat the microcarriers, 1 mg of plasmid, 2 mg of cDNA (1 mL), […] of tungsten particle suspension (25 mg/ml), […] of 1 M Ca(NO3)2 solution (pH 10) per bombardment were combined dropwise with constant mixing, left to stand for 10 minutes at RT and centrifuged briefly, and […] of supernatant were removed. The remainder, which contained the tungsten particles, is resuspended (ultrasonic bath) and employed in the experiment.
Barley primary leaf segments approximately 4 cm in length were used. The tissue was placed on 0.5% Phytagar (GibcoBRLt Life Technologiest, Karlsruhe) supplemented with […] benzimidazole in Petri dishes (diameter 6.5 cm); immediately prior to the particle bombardment, the edges were covered with a stencil with a rectangular slot 2.2 cm×2.3 cm in size. One after the other, the dishes were placed on the bottom of the vacuum chamber (Schweizer P et al. (1999) Mol Plant Microbe Interact 12:647-54) above which a nylon mesh (mesh size 0.2 mm, Millipore, Eschborn) had been inserted on a perforated board (5 cm above the bottom, 11 cm underneath the macrocarrier, see hereinbelow) to act as diffuser in order to diffuse particle aggregations and to slow down the particle stream. For each bombardment, the macrocarrier (plastic sterile filter holder 13 mm, Gelman Sciences, Swinney, UK) which had been attached at the top of the chamber was loaded with […] of DNA-coated tungsten particles (microcarrier, see hereinbelow). The pressure in the chamber was reduced by 0.9 bar using a membrane vacuum pump (Vacuubrand, Wertheim), and the surface of the plant tissue was bombarded with the tungsten particles at a helium gas pressure of 9 bar. The chamber was aerated immediately thereafter.
To label transformed cells, the leaves were bombarded with the plasmid (pGFP; pUC18-based vector, CaMV 35S promoter/terminator cassette with inserted GFP gene; Schweizer P et al. (1999) Mol Plant Microbe Interact 12:647-54; provided by Dr P. Schweizer, Schweizer P, Institute of Plant Genetics IPK, Gatersleben, Germany). Before carrying out the bombardment with another plasmid, the macrocarrier was cleaned thoroughly with water in each case. […]

[2] = tested on: pathogenic fungus or bacterium (Blumeria graminis, Pythium spec., Botrytis cinerea, Pseudomonas syringae and others); experiment: Pathogen infection of transgenic Arabidopsis thaliana; type: in vivo; settings: transgenic plants, sense orientation; fluorescence and light microscopy
[3] = HPLC analysis of DNPH-derivatized volatile aldehydes; type: biochemical; settings: substrates 13-HPOTE and 9-HPODE, DNPH derivatives
Text: The reaction of hydroperoxides with DES gives rise to divinyl ethers which hydrolyze in an acidic environment to give aldehydes. These aldehydes are volatile. In order to identify these aldehydes which are formed, they can be derivatized with DNPH (Kohlmann et al.; 1999, Eur. J. Biochem. 260, 885-895). The hydrazones thus formed are no longer volatile and can be identified with the aid of an HPLC analysis via their retention time.

What does the source list for “Pp364 cDNA: complete cDNA encoding the Physcomitrella patens divinyl ether synthase, used to transform barley and Arabidopsis”?
haustorial growth of the fungus in transformed cells [1]: no haustorial growth takes place; effect on total number or number of attacked GFP-expressing cells [1]: no effect; average % RPE value (relative penetration efficiency) [1]: −30%; reduction of penetration efficiency by Blumeria graminis f.sp. hordei [1]: 44%; resistance to pathogens in comparison with the wild type [2]: increased resistance

B1: Pp364: Physcomitrella patens CYP74E divinyl ether synthase, 532 amino acids, recombinantly expressed in E. coli (protein, listed as Physcomitrella patens)
chain: MDRTLVLTCTTTCSHSAFRQSALPSNTSISVRLGTCSVRTQKRRTVVASLGNIETTSTSTVGQESNLPLREIPGSYGIPYLSQLLDRWTFFYREGEPQFWQSRMAKYGSTVIRSNMPPGWFWTDSRCIMLLDQKSYPTVFDYDKVDKYKAFAGTIMPSTEYNGGYEVCAYLDASDKKHEQLKGYCFELLKFSSSKWAREFHTAISETFNQWEGKLAQKTPALINPTLPESLFSFVINALTTARFDDSSIPDAEKPVCGDLQKWAGFQLMPVIRTGAPIYIEEMLHVAPIPASLTKGGYDKMVVFLQKYAAETLSIAEKFGLSQDEAVHNLIFFLILNAHGGFCRFLPVILREVAKNGQLQADLREEVRAAVKASGSDQVTMKAVMNDMPLVASTVFEALRFDPPVPFQYARAKKDFIIESHDARYQIKTGDFLGGVNYMVSRDPKVFTDRPNEFNARRFMGPEGDKLLAHLVWSNGRQTDETTVYTKQCAGKEIVPLTGRLLLAELFMRFDSFNIEGLEMEATFTSLTPRSD
With B1 as the molecule, how does the “formation of aldehydes in reaction mixture” value [3] read?
Its value is “aldehydes are formed”.

B2: Pp291: Physcomitrella patens CYP74A allene oxide synthase, 475 amino acids, recombinantly expressed in E. coli (protein, listed as Physcomitrella patens)
chain: MAVPSSKLPLKAIPGDYGVPYFGAIKDRLDYFWLQGEEQFYRSRMAKYNSTVFRVNMPPGPPISEHPQVICLLDQKSFPILFDVSKVEKKDVFTGTYMPSVSFTSGYRVCSYLDPSEERHTKLKQWCFEVIAMNGRNFLPEFHKSIEESMVLWETSLAKGEKTSVSDEVKQFAFNFLMRAVCHHDPAAPGEYSLGRNGGPYATAWANPQLAPIAGQTGLPHVVEELVLHTVPLPSALVKKNYDALYNFIKNYATEALDRAEAMGIERNDATANLLFFLCFNAYGGFSIFFPLITILISSCGPELMHDLHDEVTKAVAATDGKVTLQSIENMPLVKSVVYEAFRFKPPVPYQYGKAKFDFTIENHENSFEVKKGEMLYGYQPIVMHDPKVFSDPDQFLPRRFMGPDGEKLIKYIFWSNGYETDEPTTANKQCAGKDLVVTMARAFVAEMFLRYKEYTLTMEGAGNATKVFFSDLKK
With B2 as the molecule, how does the “formation of aldehydes in reaction mixture” value [3] read?
The value was “No aldehydes were detected”.

B3: Pp291 cDNA: complete cDNA encoding the Physcomitrella patens allene oxide synthase, used to transform barley and Arabidopsis (nucleic acid, listed as Physcomitrella patens)
DNA: ATGGCAGTCCCTTCATCCAAGCTGCCGTTGAAGGCGATTCCTGGAGACTATGGAGTCCCCTACTTCGGTGCCATAAAGGATCGACTAGACTACTTTTGGTTGCAGGGGGAGGAGCAGTTTTACCGAAGCCGGATGGCCAAGTACAATAGCACGGTGTTTCGTGTCAACATGCCGCCTGGCCCTCCAATTTCCGAACACCCTCAAGTCATCTGCCTCTTGGATCAGAAAAGCTTTCCAATTCTGTTCGACGTTAGCAAGGTTGAGAAAAAGGACGTGTTCACAGGAACATACATGCCGAGTGTGAGCTTCACCAGCGGGTACCGCGTTTGCTCCTACTTGGATCCCTCTGAGGAACGCCACACGAAGCTCAAGCAATGGTGCTTTGAAGTCATTGCGATGAACGGGCGGAACTTTCTTCCCGAGTTTCACAAGTCGATTGAAGAGTCGATGGTGCTCTGGGAGACGAGTCTGGCCAAGGGCGAGAAGACTAGCGTATCGGATGAGGTGAAACAGTTCGCGTTTAATTTCCTGATGCGCGCTGTATGCCATCACGACCCCGCTGCGCCTGGAGAATACAGCTTAGGGCGTAATGGTGGCCCGTATGCAACCGCCTGGGCAAATCCCCAGCTCGCTCCGATTGCAGGACAGACGGGTCTCCCCCATGTCGTGGAGGAGCTCGTGTTACACACCGTCCCACTCCCCTCTGCCCTGGTCAAGAAGAACTACGATGCCCTCTACAATTTCATCAAAAACTACGCCACCGAGGCGCTGGATAGGGCTGAAGCTATGGGCATCGAGCGCAATGACGCCACTGCCAACCTGCTGTTCTTCCTTTGCTTTAACGCCTACGGCGGATTCAGCATCTTCTTCCCCCTCATCACTATCCTCATTTCTTCATGCGGTCCGGAGCTCATGCACGATCTCCACGACGAAGTCACCAAGGCCGTCGCCGCCACAGATGGGAAAGTCACTCTTCAATCCATCGAGAACATGCCATTGGTGAAGTCCGTCGTCTACGAAGCTTTCCGATTCAAGCCCCCAGTGCCATACCAATACGGCAAGGCCAAGTTCGACTTCACCATAGAGAACCACGAAAACTCCTTCGAGGTCAAGAAGGGAGAAATGCTGTATGGTTATCAACCTATCGTGATGCACGACCCCAAGGTCTTCTCGGACCCAGATCAGTTTCTACCTCGACGATTCATGGGCCCCGACGGCGAGAAGCTCATCAAATACATCTTCTGGTCCAATGGTTACGAGACTGACGAGCCGACTACCGCAAACAAGCAGTGCGCCGGAAAGGACTTGGTGGTCACAATGGCGCGAGCATTCGTCGCAGAAATGTTCTTGAGATATAAAGAGTATACCCTGACCATGGAGGGCGCAGGAAATGCGACCAAGGTTTTCTTTTCCGATCTCAAAAAGTGA
modifications: CDS (1)..(1428) Pp291 Allenoxid-Synthase
notes: complete cDNA encoding the Physcomitrella patens allene oxide synthase, used to transform barley and Arabidopsis
For B3, which “haustorial growth of the fungus in transformed cells” value [1] is on record?
Its value is “no haustorial growth takes place”.

And the “effect on total number or number of attacked GFP-expressing cells” value [1]?
Its value is “no effect”.

What about the “average % RPE value (relative penetration efficiency)” value [1] of the same molecule?
The value was −30%.

What about the “reduction of penetration efficiency by Blumeria graminis f.sp. hordei” value [1] of the same molecule?
The value was 44%.

What about the “resistance to pathogens in comparison with the wild type” value [2] of the same molecule?
The value was “increased resistance”.

Reference: patent publication US7786348B2, “Methods for producing pathogen-resistant plants with allene oxide synthase and divinyl ether synthase, and the amino acid and nucleotide sequences thereof” (BASF Plant Science GmbH, priority 2001, dated 2010)
